Assay [1] addresses EAAT4, full-length glutamate transporter (rat) (UniProt O35921). Nature of the assay: cell-based or functional assay.
Assay [2] addresses GTRAP4-48 (glutamate transporter 4 associated protein), full-length (rat) (UniProt Q9ES67). Nature of the assay: cell-based or functional assay.

Results on two substances are retold here after patent US6808893.

EAAT4, full-length glutamate transporter (rat), sequence (O35921 whole entry): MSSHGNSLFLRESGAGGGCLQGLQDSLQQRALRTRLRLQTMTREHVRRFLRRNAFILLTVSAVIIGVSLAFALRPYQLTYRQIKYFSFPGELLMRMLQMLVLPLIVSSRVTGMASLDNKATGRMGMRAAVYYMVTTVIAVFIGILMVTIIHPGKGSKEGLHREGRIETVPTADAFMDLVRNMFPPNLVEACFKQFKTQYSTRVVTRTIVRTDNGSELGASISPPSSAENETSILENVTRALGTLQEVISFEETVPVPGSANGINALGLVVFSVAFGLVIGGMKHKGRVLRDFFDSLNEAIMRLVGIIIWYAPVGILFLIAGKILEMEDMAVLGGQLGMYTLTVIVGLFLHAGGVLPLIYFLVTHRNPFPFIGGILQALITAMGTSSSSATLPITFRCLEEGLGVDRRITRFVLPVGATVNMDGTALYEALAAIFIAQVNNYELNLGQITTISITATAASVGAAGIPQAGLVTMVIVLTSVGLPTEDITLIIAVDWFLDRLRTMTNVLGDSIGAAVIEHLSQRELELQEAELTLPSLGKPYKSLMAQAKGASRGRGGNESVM
GTRAP4-48 (glutamate transporter 4 associated protein), full-length (rat), sequence (Q9ES67 whole entry): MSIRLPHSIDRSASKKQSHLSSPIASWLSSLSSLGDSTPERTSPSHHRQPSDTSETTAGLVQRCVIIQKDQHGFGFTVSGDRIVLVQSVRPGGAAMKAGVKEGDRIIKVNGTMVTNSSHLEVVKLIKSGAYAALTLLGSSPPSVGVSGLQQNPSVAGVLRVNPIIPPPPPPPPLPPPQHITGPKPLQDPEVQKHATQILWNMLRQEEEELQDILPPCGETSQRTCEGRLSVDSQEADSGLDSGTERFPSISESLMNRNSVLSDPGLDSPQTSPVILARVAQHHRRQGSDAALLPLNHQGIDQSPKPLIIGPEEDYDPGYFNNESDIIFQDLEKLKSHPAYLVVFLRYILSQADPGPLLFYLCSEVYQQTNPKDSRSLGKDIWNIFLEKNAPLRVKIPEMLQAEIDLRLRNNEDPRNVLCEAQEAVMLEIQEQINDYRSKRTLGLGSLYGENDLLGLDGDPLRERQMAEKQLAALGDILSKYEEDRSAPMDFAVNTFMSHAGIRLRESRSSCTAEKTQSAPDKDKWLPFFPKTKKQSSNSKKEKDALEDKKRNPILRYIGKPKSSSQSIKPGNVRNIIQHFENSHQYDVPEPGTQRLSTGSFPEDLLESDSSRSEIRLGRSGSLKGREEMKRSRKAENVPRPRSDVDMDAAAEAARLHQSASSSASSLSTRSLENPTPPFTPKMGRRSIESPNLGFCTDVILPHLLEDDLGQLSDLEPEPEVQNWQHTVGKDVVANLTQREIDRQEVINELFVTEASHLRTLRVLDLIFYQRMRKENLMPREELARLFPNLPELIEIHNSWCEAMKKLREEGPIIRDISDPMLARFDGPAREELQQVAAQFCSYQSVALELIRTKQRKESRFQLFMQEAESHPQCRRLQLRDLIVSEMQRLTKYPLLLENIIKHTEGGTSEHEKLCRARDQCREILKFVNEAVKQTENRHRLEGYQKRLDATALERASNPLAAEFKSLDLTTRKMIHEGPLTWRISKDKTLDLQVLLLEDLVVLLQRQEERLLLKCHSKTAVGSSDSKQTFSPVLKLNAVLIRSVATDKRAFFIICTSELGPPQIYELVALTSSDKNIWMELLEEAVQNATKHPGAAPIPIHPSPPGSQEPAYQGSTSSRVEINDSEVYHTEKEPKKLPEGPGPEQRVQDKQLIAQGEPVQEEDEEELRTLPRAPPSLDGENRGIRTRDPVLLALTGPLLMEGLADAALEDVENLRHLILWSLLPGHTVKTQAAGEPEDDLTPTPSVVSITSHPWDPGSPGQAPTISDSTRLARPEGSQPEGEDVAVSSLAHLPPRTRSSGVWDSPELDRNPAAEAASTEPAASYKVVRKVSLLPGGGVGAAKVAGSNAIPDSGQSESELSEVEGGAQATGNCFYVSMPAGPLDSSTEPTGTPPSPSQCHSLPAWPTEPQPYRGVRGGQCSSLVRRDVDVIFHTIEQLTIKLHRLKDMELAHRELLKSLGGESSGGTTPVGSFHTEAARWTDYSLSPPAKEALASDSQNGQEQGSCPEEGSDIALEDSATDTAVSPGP

On to “GTRAP4-41 (glutamate transporter 4 associated protein), full-length, Q9QWN8 2-2388”, for which, in assay [1], the Km of Na+-dependent L-[3H]-glutamate uptake with GTRAP41 turned out to be 11 µM, the Na+-dependent glutamate transport in HEK-rEAAT4 cells came to 2 fold and the Vmax of Na+-dependent L-[3H]-glutamate uptake with GTRAP41 was determined as 605 pmol/mg/min.

On to “myc-tagged construct encoding the last 77 amino acids of EAAT4 (from UniProt O35921 485-561)”, for which, in assay [2], the GTRAP4-48 mediated increase of EAAT4 uptake activity in HEK-rEAAT4 cells was 25%.
